Assay results published in publication PMC11953334, “Substrates bind to residues lining the ring of asymmetrically engaged bacterial proteasome activator Bpa” (Nature Communications, 2025).

B1: truncated Bpa variant lacking the flexible N- and C-terminal segments (Bpa36-139) (domain or fragment)
chain: SLTDLVEQPAKVMRIGTMIKQLLEEVRAAPLDEASRNRLRDIHATSIRELEDGLAPELREELDRLTLPFNEDAVPSDAELRIAQAQLVGWLEGLFHGIQTALFA
notes: Dodecameric ring; also called substrate-captured Bpa; copies: 12
B2: bacterial proteasome activator Bpa, full-length, wild-type (natural protein)
chain: MVIGLSTGSDDDDVEVIGGVDPRLIAVQENDSDESSLTDLVEQPAKVMRIGTMIKQLLEEVRAAPLDEASRNRLRDIHATSIRELEDGLAPELREELDRLTLPFNEDAVPSDAELRIAQAQLVGWLEGLFHGIQTALFAQQMAARAQLQQMRQGALPPGVGKSGQHGHGTGQYL
notes: also called wild-type Bpa ring; Bpa12; copies: 12

Experiments:
cross-linking + SEC = target: the molecule itself; assay: cross-linking + SEC
negative stain EM = target: the molecule itself; assay: negative stain EM
20S CP α-subunit = target: T1, 20S CP α-subunit (M. tuberculosis H37Rv, UniProt P9WHU1 1-248); assay: cryo-EM structure; conditions: both partners purified
T1 construct: also called proteasomal α-subunits; α-ring
T1 sequence (P9WHU1 whole entry): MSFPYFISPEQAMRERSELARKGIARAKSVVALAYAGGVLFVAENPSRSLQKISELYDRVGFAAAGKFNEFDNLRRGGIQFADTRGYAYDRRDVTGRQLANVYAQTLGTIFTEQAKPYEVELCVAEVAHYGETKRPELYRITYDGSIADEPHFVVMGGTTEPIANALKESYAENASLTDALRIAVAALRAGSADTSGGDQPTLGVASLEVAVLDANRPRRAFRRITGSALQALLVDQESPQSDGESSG

Binder	stoichiometry N (cross-linking + SEC)	stoichiometry N (negative stain EM)	binding result (20S CP α-subunit)
B1	12	24	
B2			binds
